Values quoted from earlier work, collected in publication PMC4243993.

Target: His105 (UniProt position 105, PPVKIHCSILA)

Substance: Iron-sulfur cluster assembly scaffold protein IscU (Escherichia coli)
- pKa: around 9
